Laboratory results: publication PMC5658023 (Current biology : CB, 2017)
Where two headings read alike, the source gives them in different places. Values belong to the binder of their own block, whether it stands above or below them.

B4: MBP-Chs4-SLR (220-610) (domain or fragment, S. cerevisiae, UniProt P34226 220-610, looked up)
chain: QYMLQTALTIESSNALVQDSDKEGNVSQSDLKLQFLKEAQSYLKKLSIKGYSDAQYLLADGYSSGAFGKIENKEAFVLFQAAAKHGHIESAYRASHCLEEGLGTTRDSRKSVNFLKFAASRNHPSAMYKLGLYSFYGRMGLPTDVNTKLNGVKWLSRAAARANELTAAAPYELAKIYHEGFLDVVIPDEKYAMELYIQAASLGHVPSATLLAQIYETGNDTVGQDTSLSVHYYTQAALKGDSVAMLGLCAWYLLGAEPAFEKDENEAFQWALRAANAGLPKAQFTLGYFYEHGKGCDRNMEYAWKWYEKAAGNEDKRAINKLRSRDGGLASIGKKQHKKNKSISTLNLFSTVDSQTSNVGSNSRVSSKSETFFTGNPKRDREPQGLQINMN

Legend:
Assay in all cases: pull-down
[1] = target: B4
[2] = target: T1, GST-Chs4-SLR (220-610) (S. cerevisiae, UniProt P34226 220-610)
T1 sequence (looked up): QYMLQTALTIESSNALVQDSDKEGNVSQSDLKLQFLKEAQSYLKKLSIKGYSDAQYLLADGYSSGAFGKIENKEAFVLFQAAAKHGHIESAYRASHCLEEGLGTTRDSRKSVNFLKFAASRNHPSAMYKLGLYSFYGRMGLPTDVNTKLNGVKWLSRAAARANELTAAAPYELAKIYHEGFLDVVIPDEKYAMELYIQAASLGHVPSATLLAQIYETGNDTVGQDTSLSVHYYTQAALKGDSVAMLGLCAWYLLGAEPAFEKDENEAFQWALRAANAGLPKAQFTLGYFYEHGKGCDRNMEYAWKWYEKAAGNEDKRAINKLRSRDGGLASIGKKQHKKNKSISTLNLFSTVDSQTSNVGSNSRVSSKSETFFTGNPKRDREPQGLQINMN

[3] = target: T1, GST-Chs4-SLR (220-610); remark: listed apart in the source
[4] = target: T2, His6-Chs3-MID (477-1028) (S. cerevisiae, UniProt P29465 477-1028)
T2 sequence (looked up): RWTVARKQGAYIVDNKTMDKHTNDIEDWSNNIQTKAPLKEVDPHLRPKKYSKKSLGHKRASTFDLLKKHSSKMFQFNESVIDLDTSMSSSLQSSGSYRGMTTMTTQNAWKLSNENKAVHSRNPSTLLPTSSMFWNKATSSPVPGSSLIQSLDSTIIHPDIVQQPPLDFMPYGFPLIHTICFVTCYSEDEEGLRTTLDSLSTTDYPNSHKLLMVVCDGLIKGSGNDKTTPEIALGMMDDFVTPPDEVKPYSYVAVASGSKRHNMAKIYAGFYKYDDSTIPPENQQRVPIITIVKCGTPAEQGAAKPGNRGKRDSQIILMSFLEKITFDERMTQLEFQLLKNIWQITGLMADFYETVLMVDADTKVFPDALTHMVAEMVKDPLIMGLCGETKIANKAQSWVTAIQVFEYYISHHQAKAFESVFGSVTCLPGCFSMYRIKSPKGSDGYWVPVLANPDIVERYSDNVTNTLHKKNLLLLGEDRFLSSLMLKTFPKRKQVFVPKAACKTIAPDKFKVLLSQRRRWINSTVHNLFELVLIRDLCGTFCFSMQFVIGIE

binding result [3]: binds
B2: MBP-Hof1-N-term (1-340) (domain or fragment, S. cerevisiae, UniProt Q05080 1-340, looked up)
chain: MSYSYEACFWDPNDNGVNILLGHISQGIRSCDSMILFFKQRSELEKDYARRLGAITGKLDKDIGTNMDYGKLNETFNVVLSVEKARAQSHSKQSEILFRQIYTDTKAFAANLQARYTTLSGKIERLRMDKFNKKKGCEVLQKKLQDAQIRFRDLQLNENNMIGAKRVEHNKRELLKWESNSQEYKVQLDVLKQEYKASQKFWIHEWAQLSCELQEMENARISFLQSKLQQFATSSMETYILEQTKMDMLTNHLNSFTAADEISTFSKENGTGRLKHKTSKGDMNSSANWAQMSSISTTSKKTESYMDNIRKLSSQLKETENKRKLASIDKYEKPLPSPEV

binding result [3]: binds
B3: MBP-Hof1-F-BAR (1-275) (domain or fragment, S. cerevisiae, UniProt Q05080 1-275, looked up)
chain: MSYSYEACFWDPNDNGVNILLGHISQGIRSCDSMILFFKQRSELEKDYARRLGAITGKLDKDIGTNMDYGKLNETFNVVLSVEKARAQSHSKQSEILFRQIYTDTKAFAANLQARYTTLSGKIERLRMDKFNKKKGCEVLQKKLQDAQIRFRDLQLNENNMIGAKRVEHNKRELLKWESNSQEYKVQLDVLKQEYKASQKFWIHEWAQLSCELQEMENARISFLQSKLQQFATSSMETYILEQTKMDMLTNHLNSFTAADEISTFSKENGTGRLK

The remaining lines, values behind:

B1: His6-Hof1-N-term (domain or fragment, S. cerevisiae, UniProt Q05080 1-340, looked up)
chain: MSYSYEACFWDPNDNGVNILLGHISQGIRSCDSMILFFKQRSELEKDYARRLGAITGKLDKDIGTNMDYGKLNETFNVVLSVEKARAQSHSKQSEILFRQIYTDTKAFAANLQARYTTLSGKIERLRMDKFNKKKGCEVLQKKLQDAQIRFRDLQLNENNMIGAKRVEHNKRELLKWESNSQEYKVQLDVLKQEYKASQKFWIHEWAQLSCELQEMENARISFLQSKLQQFATSSMETYILEQTKMDMLTNHLNSFTAADEISTFSKENGTGRLKHKTSKGDMNSSANWAQMSSISTTSKKTESYMDNIRKLSSQLKETENKRKLASIDKYEKPLPSPEV
binding result [1]: binds
binding result [2]: binds

Binder: B4
binding result [4]: binds
